What is called stoichiometry N is the number of molecules, sites or subunits per partner or assembly.

Common to all, as to conditions: remark: other sources report otherwise
For assay [1], the target named is T1, wildtype pneumolysin (PLYWT) (Streptococcus pneumoniae), P0C2J9.
T1 chain: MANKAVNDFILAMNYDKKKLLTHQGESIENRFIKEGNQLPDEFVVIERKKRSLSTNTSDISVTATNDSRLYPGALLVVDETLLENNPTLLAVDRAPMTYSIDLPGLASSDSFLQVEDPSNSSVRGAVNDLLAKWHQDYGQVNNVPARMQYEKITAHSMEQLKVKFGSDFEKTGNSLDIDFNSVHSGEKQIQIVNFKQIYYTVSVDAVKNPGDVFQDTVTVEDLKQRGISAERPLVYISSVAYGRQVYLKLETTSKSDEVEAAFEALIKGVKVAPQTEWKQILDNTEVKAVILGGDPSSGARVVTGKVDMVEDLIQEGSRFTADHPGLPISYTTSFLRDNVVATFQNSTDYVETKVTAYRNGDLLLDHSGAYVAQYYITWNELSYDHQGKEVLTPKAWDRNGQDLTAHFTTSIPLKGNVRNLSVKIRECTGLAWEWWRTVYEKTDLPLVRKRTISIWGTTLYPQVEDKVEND
The assay can be described thus: electron cryo-tomography with subtomogram averaging; pores: preformed cholesterol-containing liposomes incubated with PLY (1 mg/ml) at 37°C for 30-180 min; subtomogram average at 27 Å.

In assay [2] the target is T1, wildtype pneumolysin (PLYWT) …. The assay can be described thus: electron cryo-tomography with subtomogram averaging; prepores: preformed cholesterol-containing liposomes incubated with PLY (1 mg/ml) at room temperature for 30 min; subtomogram average at 22 Å.
Assay [3] shares this target. Put plainly: cryo-EM structure; single-particle cryoEM of PLY pore complexes formed on DOPC/cholesterol liposomes (37°C, 30 min), solubilised with 0.56% Cymal-6 and exchanged into amphipol A8-35; 50 mM Tris-HCl pH 7.0, 150 mM NaCl, 5 mM β-mercaptoethanol; 42-fold symmetry, 4.5 Å.

B1: wildtype pneumolysin (PLYWT), P0C2J9 1-471 (natural protein)
chain: MANKAVNDFILAMNYDKKKLLTHQGESIENRFIKEGNQLPDEFVVIERKKRSLSTNTSDISVTATNDSRLYPGALLVVDETLLENNPTLLAVDRAPMTYSIDLPGLASSDSFLQVEDPSNSSVRGAVNDLLAKWHQDYGQVNNVPARMQYEKITAHSMEQLKVKFGSDFEKTGNSLDIDFNSVHSGEKQIQIVNFKQIYYTVSVDAVKNPGDVFQDTVTVEDLKQRGISAERPLVYISSVAYGRQVYLKLETTSKSDEVEAAFEALIKGVKVAPQTEWKQILDNTEVKAVILGGDPSSGARVVTGKVDMVEDLIQEGSRFTADHPGLPISYTTSFLRDNVVATFQNSTDYVETKVTAYRNGDLLLDHSGAYVAQYYITWNELSYDHQGKEVLTPKAWDRNGQDLTAHFTTSIPLKGNVRNLSVKIRECTGLAWEWWRTVYEKTDLPLVRKRTISIWGTTLYPQVEDKVEND
In the case of B1, the stoichiometry N in assay [1] turned out to be 34 subunits; in assay [2], 34 subunits; in assay [3] it was 42 subunits.
